Results published in the supplement of paper PMC12042874.
± gives the uncertainty stated by the source.

Experiment: amyloid nucleation score (Sup35N fusion, yeast selection) (log enrichment); library NNK3; higher = more nucleation; inactive = no reads after selection
How it was run: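 Sup35N fusions to peptides of 20 random codons were expressed in psi-negative yeast, induced 24 hours with 100 μM copper sulfate, and grown 7 days at 30°C on medium lacking adenine and uracil. Input and output plasmid inserts were sequenced by Illumina. The nucleation score is the DiMSum log enrichment of output over input reads, centred on the mode score of non-aggregating sequences. Sequences with under 100 input reads were excluded.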

Row | Substance | amyloid nucleation score
1 | VFISRKCWRNHNF | inactive
2 | VFKWWM | 1.2 ± 0.16
3 | VFLSSELSTLLVVYRLLGSG | inactive
4 | VFLVQFFFINFLGNSN | 2.45 ± 0.067
5 | VFLYTNKYRYGCCGFAFTPF | inactive
6 | VFNLLYVGFHVDSIGVGCVI | 1.97 ± 0.096
7 | VFNRSSAT | inactive
8 | VFPFIRNKV | inactive
9 | VFPFSSFFKFLQRSWCGRDE | 1.22 ± 0.12
10 | VFRLKSVLSGLLQAHRLAGI | inactive
11 | VFTSGLCEKS | 0.195 ± 0.72
12 | VFTWILSDSHTSMWFRCQGG | inactive
13 | VGGQISRDNGCLSILMSFDN | inactive
14 | VGKFRLMIHVTSHYGFCDLF | inactive
15 | VGLALRLCLAVLSDRKWILS | inactive
16 | VGLFRESPWEV | inactive
17 | VGLRNLGFVMFSRWLTPLLI | inactive
18 | VGLSYVMINLGLPYLGRSAT | 1.83 ± 0.082
19 | VGMRNTSLRCLVLIG | inactive
20 | VGRAD | inactive
21 | VGRPTASGLRNCMWSLSWCV | inactive
22 | VGWIHYCQGTYKRMFGITGR | inactive
23 | VGYAGVIIEKKYHCPKKSAF | inactive
24 | VGYTNLVFGDLLLFCMFNWD | 0.109 ± 0.45
25 | VHFLILETFKQNMWGYDLTL | inactive
26 | VHGIRSELDRYLMNTNSTEL | inactive
27 | VHLNPEN | inactive

Row | Substance | amyloid nucleation score
28 | VHVSVCRSKGWHDLWRIKCV | inactive
29 | VHYSWSTFFD | 0.593 ± 0.27
30 | VICGGNRLRSIQWTFWLWDN | inactive
31 | VIFFSRSAYYKVISGRVI | inactive
32 | VIHEDMVLTGF | inactive
33 | VIHSLLALTDLMSKSYLTIY | inactive
34 | VIMRMFSFARLFVGSYPFRV | inactive
35 | VIRIGDPILTV | inactive
36 | VIRPFVYGDNLVSSTTAMIF | inactive
37 | VIVELVCLVMFNVWVGKGLW | -0.054 ± 0.31
38 | VIYISCFTVLLVFLVNTPLR | 1.2 ± 0.11
39 | VKEPMVPITLLSSTSSLDGM | inactive
40 | VKFIYRLEQNEDSAQNSRMG | inactive
41 | VKGQCHYYLLSQLSGSSPVI | inactive
42 | VKISYDKSRHVCLCGFSSM | 2.37 ± 0.077
43 | VKIYLSPTWEHIDRVYNCAL | 1.59 ± 0.059
44 | VKLKNLSCKRLLRRHSACHR | inactive
45 | VKLSSFCRSNNCWYMRHAFL | inactive
46 | VKRGCCLVICWARFNVSEAH | inactive
47 | VKRVKMLAYPRHFLLMMSGK | inactive
48 | VKVEPVRLLWTHVWKS | inactive
49 | VKWTQE | inactive
50 | VLCAYK | inactive
51 | VLCGLARVKEVIASRRWECG | inactive
52 | VLCHQCWCRKIWPMN | inactive
53 | VLCPFRLFMSNTYLTFAMSC | inactive
54 | VLCVETTCPVGDIMECCLLP | inactive

Row | Substance | amyloid nucleation score
55 | VLEMMWVD | 0.144 ± 0.64
56 | VLGVEECGYWLD | inactive
57 | VLGYILMRLRLYKIQVDISG | inactive
58 | VLMGRCLPRWLLYEELLVYV | inactive
59 | VLMQSS | -0.36 ± 1.2
60 | VLPCVMYNIHPQITCRR | inactive
61 | VLRCTSPIES | inactive
62 | VLRTTECVQG | inactive
63 | VLRVLLGFDKFTATISTPDG | 0.323 ± 0.28
64 | VLRVMCRCDCNTGFAKRESV | inactive
65 | VLSFRSRTSKNKFRGAQGVT | inactive
66 | VLTLIFFYFRISCICPFLL | inactive
67 | VLYGTSASWSEFEFDHVIHV | inactive
68 | VMAHFWRGKLLRSYVDRWRG | inactive
69 | VMDGFHKHIFFVVCTSRHNF | 0.271 ± 0.77
70 | VMKHHALGLEEWPQYTSYAW | inactive
71 | VMMFSELGCCVLCGPLKDNM | 1.62 ± 0.06
72 | VMTAVRAD | inactive
73 | VMYNYARFRWFLCTDQ | 1 ± 0.2
74 | VMYWLYRINDSSQSFFSYFS | inactive
75 | VNDWWVSGW | inactive
76 | VNELSFSTSF | inactive
77 | VNFVSFRP | inactive
78 | VNFWMMRHAGCCKVHNKLSV | inactive
79 | VNLNKGLRWNYFGDDMKPHR | 1.19 ± 0.073
80 | VNLSFNCWFDVVCVSSRF | 1.9 ± 0.07
